US9951373B2, “Oplophorus-derived luciferases, novel coelenterazine substrates, and methods of use” (Promega Corporation, priority 2010, dated 2018)

What was measured:
[1] = Luminescence of 9B8 opt+K33N derived variants in E. coli; type: biochemical
Method: Luminescence generated from the lysates was measured using the novel PBI-3939 and native coelenterazine as substrates. The relative specificity of the variants for PBI-3939 and native coelenterazine was calculated as described previously.
A new OgLuc library was created using 9B8opt+K33N as a starting template. The random library was created using DIVERSIFY® PCR Random Mutagenesis Kit (ClonTech; Catalog #630703). Condition 5 (as listed in the user manual) was used to generate additional variants, and the average mutation rate was calculated to be 2.6 mutations per gene by compiling sequence data from 83 randomly selected clones. This PCR library was cloned into the pF4Ag-based, non-fusion vector background described previously and the sandwich background, i.e., Id-OgLuc-HT7 (described in Example 45). Variants in the pF4Ag-base non-fusion vector background are designated with (NF). Variants in the sandwich vector background are designated with (F). In order to clone the PCR product into both vectors, an amino acid, i.e., a glycine, was appended to the variant sequence in pF4Ag, generating a new position 170 in the OgLuc variant (“170G”). The 170G is present in the sandwich construct, but in this case is considered part of the linker between OgLuc and HT7. For each library, 4,400 E. coli clones were assayed as described previously with the following exceptions. […] The assay buffer contained 100 mM MES pH 6.0 instead of HEPES, and 35 mM thiourea. The assay volumes were as follows: 10 μL cells, 40 μL, lysis buffer, and 50 μL, assay buffer.
E. coli lysates containing the variants were prepared and analyzed as described previously. Luminescence generated from the lysates was measured using the novel PBI-3939 and native coelenterazine as substrates. The luminescence of the variants was normalized to the luminescence generated by 9B8 opt (Table 12). The relative specificity of the variants for PBI-3939 and native coelenterazine was calculated by dividing the luminescence of the variants using PBI-3939 as a substrate with the luminescence of the variants using native coelenterazine as a substrate (Table 12).

HEK293 cells = experiment: Luminescence of OgLuc variants expressed in HEK293 cells; type: cell-based, human
Method: The PCR library in the pF4Ag-based non-fusion background was screened for additional variants with increased luminescence compared to 9B8 opt+K33N+170G (SEQ ID NOs: 68 and 69). Selected variants were then assayed in HEK293 and NIH3T3 cells. For each cell type, 15,000 cells were plated and grown overnight at 37° C. The next day, the cells were transfected as described in Example 25 with 10 ng pGL4.13 (Promega Corp.) as a transfection control and 100 ng of the OgLuc test DNA. The media was removed, and the cells were lysed with 100 μL of lysis buffer as described in Example 25 except the lysis buffer contained 100 mM MES pH 6.0 instead of HEPES, and luminescence measured using a GLOMAX® Luminometer.
Based on the above data, further combination variants were designed and generated (see Table 10) in the context of the pF4Ag-based non-fusion vector background without the 170G. The variants were analyzed in E. coli, HEK293 and NIH3T3 cells as described above and compared to 9B8 opt+K33N. The variants were also examined for luminescence with native coelenterazine.
The brightness of the variants expressed in HEK293 and NIH3T3 cells was measured as described previously. The luminescence of the variants was normalized to the luminescence generated by 9B8 opt (Table 27).

[2] = Km of L27V reversion variants, PBI-3939; type: biochemical
Method: Relative activities <1 indicate the reversion is detrimental compared to the residue at that site in the L27V variant. Relative activities >1 indicate the reversion is favorable for activity compared to the residue at that site in the L27V variant. Some additional data on these mutants indicated the following: 166K, 54F, 54A and L27V were tested for thermal stability. The T1/2 60° C. for 166K, 54F, and 54A were 87, 74, and 33%, respectively, indicating these substitutions cause a reduction in thermal stability. […] This indicates higher substrate affinity for L27V, particularly for the position 54 substitutions.

[3] = Exposure of OgLuc variant to urea; type: physicochemical; conditions: 3 M urea, 30 min at 25° C.
Method: Since Firefly luciferase is known to be relatively unstable, it is much more sensitive to urea exposure. To determine whether this was also the case with the OgLuc variants, the sensitivity of the OgLuc to urea was determined 5 μl of 45.3 μM L27V enzyme was mixed with 100 μL of a urea solution (100 mM MOPS, pH 7.2, 100 mM NaCl, 1 mM CDTA, 5% glycerol and various concentrations of urea) and incubated for 30 min at room temperature. 5 μL of the urea+L27V enzyme solution was diluted 10,000-fold into DMEM without phenol red+0.1% PRIONEX®, 50 μL was mixed with 50 μL of assay reagent containing 100 μM PBI-3939 (previously described) and the luminescence was read at 10 min. (FIG. 88).
A 0.31 mg/mL stock of purified L27V variant was diluted 100,000-fold into buffer (PBS+1 mM DTT+0.005% IGEPAL) and incubated with 3 M urea for 30 min at 25° C. and then mixed 1:1 (50 μL+50 μL) with an assay reagent containing 100 μM PBI-3939 (previously described). The reactions were read on a TECAN® INFINITE® F500 luminometer as described previously (for 100 min; 1 min read intervals) (FIG. 89).

[4] = relative specificity for PBI-3939 compared to native coelenterazine

B1: L27V: 9B8 opt+K33N variant with L27V, T39T, K43R, Y68D (SEQ ID NO: 89) (protein)
chain: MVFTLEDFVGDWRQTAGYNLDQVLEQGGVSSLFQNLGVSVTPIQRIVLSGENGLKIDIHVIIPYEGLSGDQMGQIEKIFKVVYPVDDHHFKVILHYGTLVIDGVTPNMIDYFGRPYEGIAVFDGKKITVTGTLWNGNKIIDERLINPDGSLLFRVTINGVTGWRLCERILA
[1]; luminescence with PBI-3939 divided by luminescence with native coelenterazine, bacterial lysates
  Fold over coelenterazine: 110
[1]; luminescence with PBI-3939 normalized to 9B8 opt, bacterial lysates
  Fold over 9B8: 1.8
[1]; [4]
  Fold over Native Coelenterazine, E. coli: 85.2
HEK293 cells; PBI-3939
  luminescence normalized to 9B8 opt, HEK293: 1.6
HEK293 cells; luminescence, PBI-3939
  Fold over 9B8 opt + K33N, HEK293: 0.8
HEK293 cells; [4]
  Fold over Native Coelenterazine, HEK293: 97
[2]
  Km: 18 µM
[3]
  reduction of activity: approximately 50%
